Source: US10829545 (MIT, dated 2020)
Positions count from the first letter of the chain named.

B1: fusion loop targeting pan-flavivirus antibody (4G2) (antibody, V domains shown)
VH: EVQLQQSGPELVKPGTSVKISCKTSGYTFTEYTIHWVKQSHGKSLAWIGGIDPNSGGTNYSPNFKGKATLTVDKSSSTAYMDLRSLSSEDSAVYFCARIYHYDGYFDVWGAGTAVTVSS
VL: DIKMTQSPSSMYASLGERVTITCKASQDINSYLTWFQQKPGKSPKTLIYRANRLIDGVPSRFSGSGSGQDYSLTISSLDYEDMGIYYCLQYDEFPPTFGGGTKLEIKR
B2: mAb 7 (antibody, V domains shown)
VH: EVQLLESGGGLVQPGGSLRLSCAASGFSFSTYSMHWVRQAPGKGLEWVSAISGEGDSAYYADSVKGRFEISRDNSKNTLYLQMNKVRAEDTAVYYCVGGYSNFYYYYTMDAWGQGTMVTVSS
VL: DIVMTQSPASLSLSPGERATLSCRATQSIVTFLAWYQQKPGQAPRLLIYDASTNASGIPARFSGSRSGTDFTLTITRLEPEDFAVYYCQQRYNWPPYSFGQGTKLEIK
notes: also called VH.2 / VL.4
B3: mAb 6 (antibody, V domains shown)
VH: EVQLVESGGGLVQPGGSLRLSCSASGFSFSTYSMHWVRQAPGKGLEYVSAITGEGDSAFYADSVKGRFTISRDNSKNTLYFEMNSLRPEDTAVYYCVGGYSNFYYYYTMDAWGQGTSVTVSS
VL: B2 VL with D1E, M4L, V30S, Q38H, N54R, I58V, T76S, R77S, L105V
notes: also called VH.3 / VL.1
B4: mAb 8 (antibody, V domains shown)
VH: B2 VH with E69T
VL: B2 VL with V30S, N54R
notes: also called VH.1 / VL.2

Molecular target: T1, Zika virus envelope protein (EP), strain ILM (Brazil Paraiba 2015), on whole virus (Zika virus)
T1 construct: also called Zika strain ILM
Assay: not given

Question: Which Kd does the source give for B1 here?
Answer: Its Kd is 6.41 µg/mL.

Question: How did the Kd turn out when B2 was run?
Answer: Its Kd is 5.21 µg/mL.

Question: B3 was tested. Which Kd did it give?
Answer: The Kd was 3.85 µg/mL.

Question: Which Kd does the source give for B4 here?
Answer: Its Kd is 19.3 µg/mL.

Molecular target: T1, Zika virus envelope protein (EP), …
Assay: cell-based or functional assay

Question: How did the “PRNT50 (plaque reduction neutralization test on BHK-21 cells)” value turn out when B3 was run?
Answer: The value was 0.0597 µg/mL.

Question: B4 was tested. Which “PRNT50 (plaque reduction neutralization test on BHK-21 cells)” value did it give?
Answer: The value was 5.12 µg/mL.
